In patent publication US20260035475A1 (BIOARCTIC, published 2026):
Residue numbers refer to the chain shown, from its start. Names may count otherwise. Blank lines part the entries; values can stand above or below the binder they belong to.

Columns and labels:
[1] = target: T1, ectodomain of human TfR1 (His10-hTfR1; SEQ ID NO:74) (human, UniProt P02786 89-760); assay: indirect ELISA on coated hTfR1 ectodomain (1 ug/ml), Fab 1:3 dilutions, anti-human IgG F(ab')2-HRP [lower panel]
T1 construct: His-tagged ectodomain; also called ectodomain of hTfR1
Procedure: For the indirect ELISA, half area 96-well plates (Corning, #3690) were coated with 1 μg/ml recombinant ectodomain of hTfR1 (SEQ ID NO:74) in PBS overnight at 4° C. The coated plates were blocked using Pierce protein-free blocking solution (Thermo Fisher Scientific, #37572) for 1 h at room temperature with shaking and washed four times in PBS containing 0.1% TWEEN-20. Serial dilutions (1:3) of various expressed constructs in incubation buffer (1% BSA, 0.1% TWEEN-20 in PBS) were incubated for 1 h at room temperature. […] Following four wash steps, K-Blue® Aqueous TMB substrate (Neogen, #331177) was added to the wells for 15 min at room temperature before the reaction was stopped with 1:1 dilution of 0.5 M H₂SO₄. The optical density at 450 nm was recorded (Spark, Tecan) and background signal was subtracted before analysis.

[2] = target: T2, chimeric TfR1 consisting of human protease like domain grafted on mouse TfR1 ectodomain (SEQ ID NO:78) (human/mouse chimera); assay: indirect ELISA on coated h/m protease-like domain chimera (1 ug/ml), IgG dilution series; x axis printed 'TfR (ng/ml)' [D]
T2 construct: His-tagged; also called h/m protease-like domain chimera
T2 chain: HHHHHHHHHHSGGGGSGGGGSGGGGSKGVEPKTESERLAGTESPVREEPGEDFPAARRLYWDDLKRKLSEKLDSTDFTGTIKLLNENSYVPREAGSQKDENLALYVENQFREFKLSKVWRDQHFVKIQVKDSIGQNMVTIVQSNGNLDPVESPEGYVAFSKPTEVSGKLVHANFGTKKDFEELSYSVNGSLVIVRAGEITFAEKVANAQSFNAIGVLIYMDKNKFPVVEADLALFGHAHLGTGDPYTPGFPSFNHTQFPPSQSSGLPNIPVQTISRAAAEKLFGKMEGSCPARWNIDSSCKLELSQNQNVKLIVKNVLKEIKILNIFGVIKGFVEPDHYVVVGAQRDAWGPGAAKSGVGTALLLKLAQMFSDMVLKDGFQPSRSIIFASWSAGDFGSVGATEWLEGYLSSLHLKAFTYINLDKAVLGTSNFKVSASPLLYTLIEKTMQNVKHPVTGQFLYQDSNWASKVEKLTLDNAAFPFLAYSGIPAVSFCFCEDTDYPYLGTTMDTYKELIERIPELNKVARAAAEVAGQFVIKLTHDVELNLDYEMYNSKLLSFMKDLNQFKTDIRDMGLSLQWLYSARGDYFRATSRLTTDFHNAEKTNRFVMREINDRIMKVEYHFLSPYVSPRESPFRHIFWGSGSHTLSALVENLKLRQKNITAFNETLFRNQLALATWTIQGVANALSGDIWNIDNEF
Procedure: Plasma samples serially diluted from a starting dilution of 1/450 or hybridoma supernatants diluted 1/2 were added to the plates (50 μl/well; dilution buffer: PBS with 0.1% BSA and 0.05% TWEEN®-20) and incubated for 2 h at room temperature and then the plates were washed four times. […] After another wash (as above), 50 μl/well TMB substrate (K-Blue® Aqueous, Neogen) was added, and the reaction was stopped after 10-15 min with 50 μl/well of 0.5 M H₂SO₄. The optical density at 450 nm was read using a plate reader (Tecan). The endpoint titers were defined as the dilution above the average of the blank wells (background) plus 3 standard deviations of the blank wells.
The coated plates were then blocked. Dilution series of mouse IgG of the analyzed antibodies were prepared in PBS and incubated on the ELISA plates. Unbound antibodies were then washed off before incubating wells with a HRP-conjugated secondary, anti-mouse-IgG for 1 h. Plates were then washed again before addition of HRP substrate TMB for development and detection of antibody binding to the wells. TMB development was stopped by adding 0.5 M H₂SO₄ to the wells and ELISA responses measured as the OD at 450 nm in an ELISA plate reader.

T1 sequence (P02786 other isoform, or with tags, fused parts or gaps): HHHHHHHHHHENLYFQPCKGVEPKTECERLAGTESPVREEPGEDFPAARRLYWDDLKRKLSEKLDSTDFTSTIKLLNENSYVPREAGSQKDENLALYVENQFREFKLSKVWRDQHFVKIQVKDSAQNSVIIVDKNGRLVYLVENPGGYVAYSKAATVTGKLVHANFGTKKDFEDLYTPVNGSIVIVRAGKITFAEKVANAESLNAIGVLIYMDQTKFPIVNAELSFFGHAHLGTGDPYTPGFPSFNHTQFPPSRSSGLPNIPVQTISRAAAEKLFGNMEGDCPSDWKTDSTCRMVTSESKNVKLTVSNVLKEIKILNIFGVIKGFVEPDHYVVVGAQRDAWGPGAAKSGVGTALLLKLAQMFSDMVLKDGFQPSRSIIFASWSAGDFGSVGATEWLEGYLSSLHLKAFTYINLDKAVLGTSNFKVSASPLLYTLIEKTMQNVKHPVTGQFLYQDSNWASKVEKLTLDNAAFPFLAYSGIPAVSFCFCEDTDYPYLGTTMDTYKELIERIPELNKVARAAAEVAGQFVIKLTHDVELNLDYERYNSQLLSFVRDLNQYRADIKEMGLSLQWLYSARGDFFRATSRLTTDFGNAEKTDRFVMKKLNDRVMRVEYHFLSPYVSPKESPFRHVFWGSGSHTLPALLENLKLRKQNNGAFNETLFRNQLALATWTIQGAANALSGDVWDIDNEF

B1: h26D3-Fab (humanized 26D3) (Fab, V domains shown)
VH: EVQLVQSGAEVKKPGSSVKVSCKASGYIFTDYNMDWVRQAPGQGLEWIGDINPDYDTTSYNEKFKGRATLTVDKSTSTAYMELSSLRSEDTAVYYCARGGYSGSSYYHPMDYWGQGTLVTVSS
VL: DIQMTQSPSSVSASVGDRVTITCKSSQSLLYSTNQKNYLAWYQQKPGKAPKLLIYWASTRESGVPSRFSGSGSGTDFTLTISSLQPEDFATYYCQQYFIYPRTFGQGTKVEIK
notes: His-tagged Fab
EC50 (read off the curve) [1]: ~400 nM

B3: 24B4 (mouse monoclonal antibody) (antibody, V domains shown)
VH: EVQLQQFGAELVKPGTSVKISCKASGYTFTDYNMDWVKQGHGKGLEWIGDINPNYDTTSYSQKFKGKATLTVDKSSSTAYMELRSLTSEDTAVYYCARSEAGNYYWYFDVWGAGTTVTVSS
VL: DIVMSQSPSSLAVSVGEKVTMSCKSSQSLLYSSNRKNYLAWYRQKPGQSPKLLIYWASTRESGVPDRFTGSGSGTDFTLTISSVKAEDLAVYSCQQYYNYPYTFGGGTKLEIK
binding result [2]: binds

Continued, values first:

EC50 (read off the curve) [1]: ~1000 nM
B2: h26D3 variant HC10 Fab (VH Y106A) (Fab, V domains shown)
VH: B1 VH with Y106A
VL: B1 VL
notes: Single mutant, His-tagged Fab

binding result [2]: binds
B4: 26D3 (mouse monoclonal antibody) (antibody, V domains shown)
VH: EVQLQQFGVELVKPGASVKISCKASGYIFTDYNMDWVKQSHGKSLEWIGDINPDYDTTSYNEKFKGKATLTVDKSSSTAYMELRSLTSEDTAVYYCARGGYSGSSYYHPMDYWGQGTSVTVSS
VL: DIVMSQSPSSLAVSVGEKITMSCKSSQSLLYSTNQKNYLAWYQQKPGQSPELLIYWASTRESGVPDRFTGSGSGTDFTLTISNVRAEDLAVYYCQQYFIYPRTFGGGTKLEIK
